Changes are numbered by the printed parent chain.

B1: 150 (protein, listed as Homo sapiens)
chain: MSSGKSARYNRFSGGPSNLPTPDVTTGTRMETTFGPAFSAVTTITKADGTSTYKQHCRTPSSSSTLAYSPRDEEDSMPPISTPRRSDSAISVRSLHSESSMSLRSTFSLPEEEEEPEPLVFAEQPSVKLCCQLCCSVFKDPVITTCGHTFCRRCALKSEKCPVDNVKLTVVVNNIAVAEQIGELFIHCRHGCRVAGSGKPPIFEVDPRGCPFTIKLSARKDHEGSCDYRPVRCPNNPSCPPLLRMNLEAHLKECEHIKCPHSKYGCTFIGNQDTYETHLETCRFEGLKEFLQQTDDRFHEMHVALAQKDQEIAFLRSMLGKLSEKIDQLEKSLELKFDVLDENQSKLSEDLMEFRRDASMLNDELSHINARLNMGILGSYDPQQIFKCKGTFVGHQGPVWCLCVYSMGDLLFSGSSDKTIKVWDTCTTYKCQKTLEGHDGIVLALCIQGCKLYSGSADCTIIVWDIQNLQKVNTIRAHDNPVCTLVSSHNVLFSGSLKAIKVWDIVGTELKLKKELTGLNHWVRALVAAQSYLYSGSYQTIKIWDIRTLDCIHVLQTSGGSVYSIAVTNHHIVCGTYENLIHVWDIESKEQVRTLTGHVGTVYALAVISTPDQTKVFSASYDRSLRVWSMDNMICTQTLLRHQGSVTALAVSRGRLFSGAVDSTVKVWTC
B2: 122 (protein, listed as Mus musculus)
chain: MAPAGCGCGCSGSLGAAVVRPLLLLLGALACVRATEHYSPLSLLKQELQHRQQQEAPAGGGCPQSGDWADQYPECESSFLNFHESDCELRGSAPCDSLLSLNTEKILSQAKSIAEQKRFPFATDNDSTNEELAIAYVLVGSGLYDEAIRHFSTMLQEAIEAFKEALKQKVDFIDAYKSLGQAYRELGNFDAATESFQKALLLNQNHVQTQQLRGMMLYHHGSLQEALKNFKRCLQLEPYNELCQYMKGLSHVAMGQFYEGIKAQTKVMLNDPLPGQKASPEYLRVKYLREYSRYLHAHLDTPLTEYNIDSDLPGSFKDHWAKNLPFLIDGYEEQPGLQPHIRDVLHQNFEGYKPEVQELICVADRLGSLMQYETPGFLPNKRIHRAMGLAALEVMQAVHRTWTNSKVRMNGKTRLLQWRDMFDIAVKWRRIADPDQPVLWLDQMPAPSLSRGFNNHINLIRGQVINMRYLEYFEKILHFIKDRILVYHGANNPKGLLEVREALEKVHKVEDLLPIMKQFNTKTKDGFTVNTKVPSLKDQGKEYDGFTITITGDKVGNILFSVETQTTEERTQLYHAEIDALYKDLTAKGKVLTLSAEFGEADAVCNLILSLVYYFYNLMPLSRGSSVIAYSVIVGALMASGKEVAGKIPKGKLVDFEAMTAPGSEAFSKIAKSWMNLKSISPSYKTLPSVSETFPTLRSMIEVLNTDSTPRCLKKL
B3: 132 (protein, listed as Mus musculus)
chain: MAGRTMQAARCPTDELSLSNCAVVNEKDFQSGQHVMVRTSPNHKHIFTLRTHPSVVPGCIAFSLPQRKWAGLSIGQDIEVALYSFDKAKQCIGTMTIEIDFLQKKNIDSNPYDTDKMAAEFIQQFNNQAFSVGQQLVFSFNDKLFGLLVKDIEAMDPSILKGEPASGKRQKIEVGLVVGNSQVAFEKAENSSLNLIGKAKTKENRQSIINPDWNFEKMGIGGLDKGFSDIFRRAFASRVFPPEIVEQMGCKHVRGILLYGPPGCGKTLLARQIGKMLNAREPKVVNGPEILNKYVGESEANIRKLFADAEEEQRRLGANSGLHIIIFDEIDAICKQRGSMAGSTGVHDTVVNQLLSKIDGVEQLNNILVIGMTNRPDLIDEALLRPGRLEVKMEIGLPDEKGRLQILHIHTARMRGHQLLSADVDIKELAVETKNFSGAELEGLVRAAQSTAMNRHIKASTKVEVDMEKAESLQVTRGDFLASLENDIKPAFGTNQEDYASYIMNGIIKWGDPVTRVLDDGELLVQQTKNSDRTPLVSVLLEGPPHSGKTALAAKIAEESNFPFIKICSPDKMIGFSETAKCQAMKKIFDDAYKSQLSCVVVDDIERLLDYVPIGPRFSNLVLQALLVLLKKAPPQGRKLLIIGTTSRKDVLQEMEMLNAFSTTIHVPNIATGEQLLEALELLGNFKDKERTTIAQQVKGKKVWIGIKKLLMLIEMSLQMDPEYRVRKFLALMREEGASPLDFD
B4: 146 (protein, listed as Homo sapiens)
chain: MNHIVQTFSPVNSGQPPNYEMLKEEQEVAMLGAPHNPAPPTSTVIHIRSETSVPDHVVWSLFNTLFMNTCCLGFIAFAYSVKSRDRKMVGDVTGAQAYASTAKCLNIWALILGIFMTILLVIIPVLVVQAQR
B5: 148 (protein, listed as Homo sapiens)
chain: B4 chain with V121I
B6: 154 (protein, listed as Homo sapiens)
chain: MAPAGCCCCCCFWGGAVAAAGAARRVLLLLLLGVLSARLRPGALATEHYSPLSLLKQELQHRQQQEAPAGGGGCSPQSGDWGDQYSAECGESSFLNFHDSDCEPKGSSPCDSLLSLNTEKILSQAKSIAEQKRFPFATDNDSTNEELAIAYVLIGSGLYDEAIRHFSTMLQILSPLGRINEAVNDLTKAIQLQPSARLYRHRGTLYFISEDYATAHEDFQQSLELNKNQPIAMLYKGLTFFHRGLLKEAIESFKEALKQKVDFIDAYKSLGQAYRELGNFEAATESFQKALLLNQNHVQTLQLRGMMLYHHGSLQEALKNFKRCLQLEPYNEVCQYMKGLSHVAMGQFYEGIKAQTKVMLNDPLPGQKASPEYLKVKYLREYSRYLHAHLDTPLTEYNIDVDLPGSFKDHWAKNLPFLIEDYEEQPGLQPHIKDVLHQNFESYKPEVQELICVADRLGSLMQYETPGFLPNKRIHRAMGLAALEVMQAVQRTWTNSKVRMNGKTRLMQWRDMFDIAVKWRRIADPDQPVLWLDQMPARSLSRGFNNHINLIRGQVINMRYLEYFEKILHFIKDRILVYHGANNPKGLLEVREALEKVHKVEDLLPIMKFNTKTKDGFTVNTKVPSLKDQGKEYDGFTITITGDKVGNILFSVETQTTEERTQLYHAEIDALYKDLTAKGKVLILSSEFGEADAVCNLILSLVYYFYNLMPLSRGSSVIAYSVIVGALMASGKEVAGKIPKGKLVDFEAMTAPGSEAFSKVAKSWMNLKSISPSYKTLPSVSETFPTLRSMIEVLNTDSSPRCLKKL
B7: 152 (protein, listed as Homo sapiens)
chain: MAPAGCCCCCCFWGGAVAAAGAARRVLLLLLLGVLSAGLRPGALATEHYSPLSLLKQELQHRQQQEAPAGGGGCSPQSGDWGDQYSAECGESSFLNFHDSDCEPKGSSPCDSLLSLNTEKILSQAKSIAEQKRFPFATDNDSTNEELAIAYVLIGSGLYDEAIRHFSTMLQEEPDLVSAIYGRGIAYGKKGLHDIKNAELALFELSRVITLEPDRPEVFEQRAEILSPLGRINEAVNDLTKAIQLQPSARLYRHRGTLYFISEDYATAHEDFQQSLELNKNQPIAMLYKGLTFFHRGLLKEAIESFKEALKQKVDFIDAYKSLGQAYRELGNFEAATESFQKALLLNQNHVQTLQLRGMMLYHHGSLQEALKNFKRCLQLEPYNEVCQYMKGLSHVAMGQFYEGIKAQTKVMLNDPLPGQKASPEYLKVKYLREYSRHLHAHLDTPLTEYNIDVDLPGSFKDHWAKNLPFLIEDYEEQPGLQPHIKDVLHQNFESYKPEVQELICVADRLGSLMQYETPGFLPNKRIHRAMGLAALEVMQAVQRTWTNSKVRMNGKTRLMQWRDMFDIAVKWRRIADPDQPVLWLDQMPARSLSRGFNNHINLIRGQVINMRYLEYFEKILHFIKDRILVYHGANNPKGLLEVREALEKVHKVEDLLPIMKQFNTKTKDGFTVNTKVPSLKDQGKEYDGFTITITGDKVGNILFSVETQTTEERTQLYHAEIDALYKDLTAKGKVLILSSEFGEADAVCNLILSLVYYFYNLMPLSRGSSVIAYSVIVGALMASGKEVAGKIPKGKLVDFEAMTAPGSEAFSKVAKSWMNLKSISPSYKTLPSVSETFPTLRSMIEVLNTDSSPRCLKKL

The test system of the first test is MAP kinase cascade activation. In words: Reporter activity reflecting MAP kinase cascade activation, corrected using an internal control (Elk1-GAL4 luciferase reporter in 293-EBNA cells). The format is cell-based, human. The following applies: 12.5 ng/well expression plasmid; 293-EBNA cells; 24 hours. As for the experimental part:
(in the presence of 5% CO2). […] The method used for introduction was in accordance with the attached protocol. After culturing for 24 hours at 37° C., reporter activity (firefly luciferase acitivity), which reflects MAP kinase cascade activation, and reporter activity being the internal control (sea pansy luciferase) were measured using Picagene Dual (purchased from Toyo Ink Manufacturing) in accordance with the manufacturer's instructions.
Luciferase activity was measured with Perkin Elmer's Wallac ARVOTMST 1420 MULTILABEL COUNTER.
Reporter activity where an expression plasmid comprising the above gene was introduced, which reflects MAP kinase cascade activation corrected with internal control reporter activity, is shown in Table 1, which is expressed as a factor of the same reporter activity where a null vector was introduced (S/B value).
Background: A reporter such as luciferase makes a cellular process visible.
With B1, the “Reporter activity corrected with internal control, as a factor of null vector (S/B value)” value (“Reporter activity corrected” for short) amounted to 6.7.

As for B2, the “Reporter activity corrected” value is reported as 1.8.

Turning to B3, the “Reporter activity corrected” value turned out to be 5.6.

The same test, now with this note: 25 ng/well expression plasmid; 293-EBNA cells; 24 hours.
As for B1, the “Reporter activity corrected” value is recorded as 2.8.

Consider B2, for which the “Reporter activity corrected” value amounted to 2.9.

With B4, the “Reporter activity corrected” value turned out to be 3.5.

Take B5: the “Reporter activity corrected” value worked out at 1.6.

Turning to B3, the “Reporter activity corrected” value is reported as 10.1.

Staying with this test, now noted: 50 ng/well expression plasmid; 293-EBNA cells; 24 hours.
B1: the “Reporter activity corrected” value was 1.7.

Regarding B2, the “Reporter activity corrected” value is recorded as 6.8.

Turning to B4, the “Reporter activity corrected” value came to 5.6.

Regarding B5, the “Reporter activity corrected” value was found to be 3.4.

B3: the “Reporter activity corrected” value is given as 16.6.

The test is the same for the next values; noted with them: 100 ng/well expression plasmid; 293-EBNA cells; 24 hours.
Turning to B4, the “Reporter activity corrected” value is recorded as 8.8.

As for B5, the “Reporter activity corrected” value worked out at 5.0.

The same test, now with this note: plasmid 12.5 ng, 25 ng, 50 ng and 100 ng.
Take B1: the “Dependence of corrected reporter activity on amount of expression plasmid” value (“Dependence” below) is listed as “increases that were dependent on the amount of expression plasmid”.

On to B6, for which the “Dependence” value was “increases that were dependent on the amount of expression plasmid”.

Turning to B2, the “Dependence” value was “increases that were dependent on the amount of expression plasmid”.

Regarding B4, the “Dependence” value is on record as “increases that were dependent on the amount of expression plasmid”.

In the case of B5, the “Dependence” value is given as “increases that were dependent on the amount of expression plasmid”.

On to B7, for which the “Dependence” value was “increases that were dependent on the amount of expression plasmid”.

Turning to B3, the “Dependence” value is “increases that were dependent on the amount of expression plasmid”.

The values are drawn from patent publication US20030092037A1, “Elk1 phosphorylation related gene” (priority 2001, published 2003).
